According to article PMC2637916:

What was measured:
[1] = target: Guanylyl cyclase activating protein 1 (GCAP1), recombinant, with the D6S mutation (UniProt P46065); experiment: pulsed-field gradient diffusion NMR
[2] = target: Guanylyl cyclase activating protein 1 (GCAP1), recombinant, with the D6S mutation (UniProt P46065); experiment: SEC

Substance: Guanylyl cyclase activating protein 1 (GCAP1), recombinant, with the D6S mutation (from UniProt P46065 1-205) (natural protein)
- stoichiometry N [1]: 2
- stoichiometry N [2]: 2
